Test results as given in article PMC7384961 (Cell, 2020).

Biological target: T1, FLAG-BirA(R118G)-TBL1XR1 Y446S (human, UniProt Q9BZK7 1-514, Y446S)
T1 sequence (looked up): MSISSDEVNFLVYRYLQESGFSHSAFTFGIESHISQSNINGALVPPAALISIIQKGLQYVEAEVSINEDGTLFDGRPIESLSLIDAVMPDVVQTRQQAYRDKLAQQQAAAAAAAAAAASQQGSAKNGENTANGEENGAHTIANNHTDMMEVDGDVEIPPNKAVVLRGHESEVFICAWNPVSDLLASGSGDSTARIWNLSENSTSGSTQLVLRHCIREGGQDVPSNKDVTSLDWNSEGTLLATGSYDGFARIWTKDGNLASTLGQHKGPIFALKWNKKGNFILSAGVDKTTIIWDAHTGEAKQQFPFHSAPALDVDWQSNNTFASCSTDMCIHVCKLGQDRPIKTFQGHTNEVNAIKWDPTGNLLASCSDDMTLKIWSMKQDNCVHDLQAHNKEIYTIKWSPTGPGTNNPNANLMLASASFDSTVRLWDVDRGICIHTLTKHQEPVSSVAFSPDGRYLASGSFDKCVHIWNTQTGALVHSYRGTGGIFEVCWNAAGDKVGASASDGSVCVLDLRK
Assay: proximity labelling

B1: BACH2 (endogenous) (natural protein)
chain: not shown
fold gain of interaction against TBL1XR1 WT: ~6 fold
